This experiment has as its target mouse FGFR4/β-klotho complex co-expressed in rat L6 myoblast cells (mouse, UniProt Q03142 17-799; Q99N32 1-1043). In words: cell-based or functional assay.

mouse FGFR4/β-klotho complex co-expressed in rat L6 myoblast cells, sequence (Q03142 17-799, chain 1 of 2): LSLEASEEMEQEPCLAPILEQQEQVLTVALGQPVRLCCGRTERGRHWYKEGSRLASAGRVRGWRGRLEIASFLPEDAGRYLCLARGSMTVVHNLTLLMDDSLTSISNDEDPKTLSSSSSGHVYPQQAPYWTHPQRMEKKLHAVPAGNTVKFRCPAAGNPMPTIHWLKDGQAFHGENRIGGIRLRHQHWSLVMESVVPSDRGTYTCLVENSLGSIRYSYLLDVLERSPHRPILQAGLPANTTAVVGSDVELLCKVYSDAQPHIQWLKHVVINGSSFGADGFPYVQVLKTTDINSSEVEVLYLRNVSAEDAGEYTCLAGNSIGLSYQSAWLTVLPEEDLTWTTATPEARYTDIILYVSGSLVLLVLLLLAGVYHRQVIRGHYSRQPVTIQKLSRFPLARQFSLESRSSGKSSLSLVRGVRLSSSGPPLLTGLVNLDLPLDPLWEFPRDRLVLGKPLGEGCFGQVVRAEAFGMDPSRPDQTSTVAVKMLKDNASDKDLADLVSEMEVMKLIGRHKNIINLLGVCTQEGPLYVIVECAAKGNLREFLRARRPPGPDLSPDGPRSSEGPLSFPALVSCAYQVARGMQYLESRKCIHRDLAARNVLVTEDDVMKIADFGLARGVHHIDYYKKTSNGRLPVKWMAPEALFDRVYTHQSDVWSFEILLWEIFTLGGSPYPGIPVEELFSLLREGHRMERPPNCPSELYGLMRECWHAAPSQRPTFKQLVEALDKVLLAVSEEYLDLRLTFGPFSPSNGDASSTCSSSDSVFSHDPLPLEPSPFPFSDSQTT
mouse FGFR4/β-klotho complex co-expressed in rat L6 myoblast cells, sequence (Q99N32 whole entry, chain 2 of 2): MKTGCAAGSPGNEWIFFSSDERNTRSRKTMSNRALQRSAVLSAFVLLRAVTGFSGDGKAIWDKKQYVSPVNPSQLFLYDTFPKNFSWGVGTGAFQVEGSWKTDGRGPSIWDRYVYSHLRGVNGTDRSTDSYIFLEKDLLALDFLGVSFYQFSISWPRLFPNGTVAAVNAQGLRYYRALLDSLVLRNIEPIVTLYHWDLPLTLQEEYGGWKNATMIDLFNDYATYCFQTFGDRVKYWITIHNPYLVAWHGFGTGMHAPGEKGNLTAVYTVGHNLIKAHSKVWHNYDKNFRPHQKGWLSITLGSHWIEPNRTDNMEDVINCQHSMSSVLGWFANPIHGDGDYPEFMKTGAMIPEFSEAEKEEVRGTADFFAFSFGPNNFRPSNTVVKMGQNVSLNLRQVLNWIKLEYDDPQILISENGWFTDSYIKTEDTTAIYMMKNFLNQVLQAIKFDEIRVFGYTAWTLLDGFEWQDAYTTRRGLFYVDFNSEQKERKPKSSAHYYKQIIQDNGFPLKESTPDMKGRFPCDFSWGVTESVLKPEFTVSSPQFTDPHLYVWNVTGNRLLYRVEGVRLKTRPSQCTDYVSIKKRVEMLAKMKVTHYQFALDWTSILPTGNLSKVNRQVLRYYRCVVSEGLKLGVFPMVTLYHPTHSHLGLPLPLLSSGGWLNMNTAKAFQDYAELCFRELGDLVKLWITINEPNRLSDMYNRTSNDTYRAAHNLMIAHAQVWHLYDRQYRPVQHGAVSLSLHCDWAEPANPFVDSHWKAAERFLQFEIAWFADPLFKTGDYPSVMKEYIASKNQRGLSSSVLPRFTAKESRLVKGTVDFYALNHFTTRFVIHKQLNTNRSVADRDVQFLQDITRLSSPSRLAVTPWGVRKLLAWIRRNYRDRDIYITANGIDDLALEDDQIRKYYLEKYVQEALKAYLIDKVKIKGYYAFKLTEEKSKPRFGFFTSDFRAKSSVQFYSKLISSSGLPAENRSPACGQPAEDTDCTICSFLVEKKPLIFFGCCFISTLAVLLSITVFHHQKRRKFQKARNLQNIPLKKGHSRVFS

B1: M70 (FGF19 variant) (ligand)
chain: MRDSSPLVHYGWGDPIRLRHLYTSGPHGLSSCFLRIRADGVVDCARGQSAHSLLEIKAVALRTVAIKGVHSVRYLCMGADGKMQGLLQYSEEDCAFEEEIRPDGYNVYRSEKHRLPVSLSSAKQRQLYKNRGFLPLSHFLPMLPMVPEEPEDLRGHLESDMFSSPLETDSMDPFGLVTGLEAVRSPSFEK
As to B1, the “EC50 (pM), ELK1 luciferase reporter in L6 cells transfected with mouse FGFR4 and β-klotho” value stood at 38.3 pM; the “Emax (fold potentiation), ELK1 luciferase reporter in L6 cells transfected with mouse FGFR4 and β-klotho” value was determined as 1.85 fold potentiation.

The values are drawn from patent publication US20200390859A1 (NGM BIOPHARMACEUTICALS, published 2020).
